Some targets named below: MAGI2_6, Q86UL8; MAST2, Q6P0Q8; DLG4_1, P78352; CASK, O14936; ARHGEF12, Q9NZN5-2; PDLIM1, O00151; FRMPD2_2, Q68DX3; Inadl_4, Q8NI35; GRIP2_4, Q9C0E4; PTPN3, P26045.
What all share (experiment): holdup assay
Holding throughout (parameters): key: below the threshold = too weak to quantify, mostly under pKd 3.1 to 4

Another test addresses T1, GRIP1_5, Q9Y3R0.
T1 sequence (Q9Y3R0 568-668, limits assumed, looked up): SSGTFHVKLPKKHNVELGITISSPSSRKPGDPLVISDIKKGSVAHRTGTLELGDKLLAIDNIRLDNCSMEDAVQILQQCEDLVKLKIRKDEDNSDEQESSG

A further test addresses T2, LIN7B, Q9HAP6.
T2 sequence (Q9HAP6 88-185, limits assumed, looked up): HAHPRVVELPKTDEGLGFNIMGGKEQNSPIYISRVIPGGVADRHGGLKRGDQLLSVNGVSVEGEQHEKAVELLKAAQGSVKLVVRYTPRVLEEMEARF

The next test deals with T3, SNTB1, Q13884.
T3 sequence (Q13884 107-205, limits assumed, looked up): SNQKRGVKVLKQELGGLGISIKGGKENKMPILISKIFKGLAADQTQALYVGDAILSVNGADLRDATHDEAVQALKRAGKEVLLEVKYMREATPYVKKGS

Another test has as its target T4, MPDZ_5, O75970.
T4 sequence (O75970 695-796, limits assumed, looked up): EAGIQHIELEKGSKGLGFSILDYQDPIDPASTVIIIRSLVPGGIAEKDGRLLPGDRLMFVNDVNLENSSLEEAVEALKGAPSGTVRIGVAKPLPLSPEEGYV

Another test has as its target T5, MPP7, Q5T2T1.
T5 sequence (Q5T2T1 134-230, limits assumed, looked up): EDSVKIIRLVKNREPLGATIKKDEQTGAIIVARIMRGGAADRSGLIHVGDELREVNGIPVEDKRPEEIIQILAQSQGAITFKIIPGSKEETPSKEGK

The target in the next test is T6, NHERF3_3, Q5T2W1.
T6 sequence (Q5T2W1 238-333, limits assumed, looked up): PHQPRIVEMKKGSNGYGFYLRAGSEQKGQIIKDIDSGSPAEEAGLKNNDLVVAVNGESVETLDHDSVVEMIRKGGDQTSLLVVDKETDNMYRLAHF

A further test concerns the target T7, NHERF3_4, Q5T2W1.
T7 sequence (Q5T2W1 373-468, limits assumed, looked up): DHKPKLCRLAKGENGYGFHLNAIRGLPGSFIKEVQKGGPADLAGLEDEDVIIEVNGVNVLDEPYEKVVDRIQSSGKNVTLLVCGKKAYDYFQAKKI

The next test addresses T8, ARHGAP21, Q5T5U3.
T8 sequence (Q5T5U3 45-169, limits assumed, looked up): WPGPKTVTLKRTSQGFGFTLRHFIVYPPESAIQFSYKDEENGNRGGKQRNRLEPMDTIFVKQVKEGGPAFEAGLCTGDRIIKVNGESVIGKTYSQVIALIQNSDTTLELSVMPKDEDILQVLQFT

For a further test, the target named is T9, TX1BP3, O14907.
T9 sequence (O14907 10-122, limits assumed, looked up): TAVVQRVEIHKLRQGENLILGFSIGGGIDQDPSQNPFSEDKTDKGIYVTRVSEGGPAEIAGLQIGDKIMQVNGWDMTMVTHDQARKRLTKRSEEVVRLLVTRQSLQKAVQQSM

The target in another test is T10, PDZD7_3, Q9H5P4.
T10 sequence (Q9H5P4 857-944, limits assumed, looked up): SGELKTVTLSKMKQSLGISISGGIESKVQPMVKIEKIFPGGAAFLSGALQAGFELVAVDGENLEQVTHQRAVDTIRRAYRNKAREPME

In a further test the target is T11, SIPA1L2, Q9P2F8.
T11 sequence (Q9P2F8 945-1036, limits assumed, looked up): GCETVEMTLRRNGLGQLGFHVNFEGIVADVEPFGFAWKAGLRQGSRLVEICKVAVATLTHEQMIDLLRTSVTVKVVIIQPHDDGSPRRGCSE

A further test concerns the target T12, MPP2, Q14168.
T12 sequence (Q14168 180-250, limits assumed, looked up): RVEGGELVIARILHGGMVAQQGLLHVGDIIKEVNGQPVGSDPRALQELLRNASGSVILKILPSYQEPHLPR

Another test has as its target T13, APBA2_2, Q99767.
T13 sequence (Q99767 654-744, limits assumed, looked up): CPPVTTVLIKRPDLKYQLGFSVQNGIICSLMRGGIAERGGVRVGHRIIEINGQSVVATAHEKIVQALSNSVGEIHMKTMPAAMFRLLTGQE

Another test deals with T14, APBA1_2, Q02410.
T14 sequence (Q02410 742-832, limits assumed, looked up): T13 sequence (Q99767 654-744, limits assumed, looked up) with K10R, K15R, A59P, Q65H, A66I, S70A, F84Y, G89A

Setting [1] is: plain residues with an end cap or a label only (N-terminal biotin on a linker: ado-ado).
The mark [2] stands for this setting: modified: phospho on T at position -2 from the C-terminal residue.

Numbering of substitutions follows the chain as printed.

Chain of PDLIM1, O00151 (O00151 1-87): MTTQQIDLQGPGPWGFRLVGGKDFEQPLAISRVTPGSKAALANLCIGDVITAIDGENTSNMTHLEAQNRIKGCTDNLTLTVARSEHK
Chain of FRMPD2_2, Q68DX3 (Q68DX3 944-1038): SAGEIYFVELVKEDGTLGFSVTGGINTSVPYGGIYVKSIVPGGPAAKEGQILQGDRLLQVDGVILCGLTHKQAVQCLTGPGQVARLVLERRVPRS
Chain of PTPN3, P26045 (P26045 505-587): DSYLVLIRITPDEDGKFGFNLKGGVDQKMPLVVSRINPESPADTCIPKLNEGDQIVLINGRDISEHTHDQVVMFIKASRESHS
Chain of CASK, O14936 (O14936 487-570): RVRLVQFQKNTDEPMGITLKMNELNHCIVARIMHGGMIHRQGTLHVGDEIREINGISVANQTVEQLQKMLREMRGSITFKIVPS
Chain of ARHGEF12, Q9NZN5-2 (Q9NZN5 other isoform, or with tags, fused parts or gaps): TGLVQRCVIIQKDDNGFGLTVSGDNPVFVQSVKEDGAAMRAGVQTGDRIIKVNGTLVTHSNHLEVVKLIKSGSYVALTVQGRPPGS
Chain of MAGI2_6, Q86UL8 (Q86UL8 1141-1229): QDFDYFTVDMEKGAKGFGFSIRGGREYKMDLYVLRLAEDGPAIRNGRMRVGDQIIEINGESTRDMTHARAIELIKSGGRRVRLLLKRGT
Chain of DLG4_1, P78352 (P78352 62-152): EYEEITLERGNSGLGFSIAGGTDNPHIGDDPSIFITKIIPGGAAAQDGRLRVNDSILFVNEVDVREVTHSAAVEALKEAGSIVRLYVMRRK
Chain of Inadl_4, Q8NI35 (Q8NI35 547-651): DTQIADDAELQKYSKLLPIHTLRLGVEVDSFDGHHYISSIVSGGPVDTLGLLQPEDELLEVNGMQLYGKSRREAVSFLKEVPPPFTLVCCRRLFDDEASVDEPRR
Chain of GRIP2_4, Q9C0E4 (Q9C0E4 446-548): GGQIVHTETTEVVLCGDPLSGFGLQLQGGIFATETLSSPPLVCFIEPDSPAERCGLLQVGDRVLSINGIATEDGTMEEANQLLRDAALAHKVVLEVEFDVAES
Chain of MAST2, Q6P0Q8 (Q6P0Q8 1099-1202): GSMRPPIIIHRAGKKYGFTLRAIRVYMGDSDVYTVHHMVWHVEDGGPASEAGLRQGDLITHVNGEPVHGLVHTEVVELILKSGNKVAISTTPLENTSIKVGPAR

In the case of PYSESDDDWC [CACNA1A, O00555], the pKd entry with GRIP1_5, Q9Y3R0 (setting [1]) was “below the threshold”; in the test with LIN7B, Q9HAP6 (setting [1]), 3.9; in the test with MAGI2_6, Q86UL8 (setting [1]) it was 4.17; with SNTB1, Q13884 (setting [1]), “below the threshold”; in the test with MPDZ_5, O75970 (setting [1]) it was “below the threshold”; with MAST2, Q6P0Q8 (setting [1]), “below the threshold”. In addition, the negative logarithm of the Kd (pKd) entry with DLG4_1, P78352 (setting [1]) was “below the threshold”; in the test with MPP7, Q5T2T1 (setting [1]), “below the threshold”; with CASK, O14936 (setting [1]), 3.53; with ARHGEF12, Q9NZN5-2 (setting [1]) it was “below the threshold”; with NHERF3_3, Q5T2W1 (setting [1]) it was “below the threshold”; with NHERF3_4, Q5T2W1 (setting [1]), “below the threshold”. Also, the negative logarithm of the Kd (pKd) with PDLIM1, O00151 (setting [1]) is 3.68; in the test with ARHGAP21, Q5T5U3 (setting [1]) it was 4.17; with TX1BP3, O14907 (setting [1]), “below the threshold”; in the test with PDZD7_3, Q9H5P4 (setting [1]) it was “below the threshold”; with SIPA1L2, Q9P2F8 (setting [1]), “below the threshold”; in the test with FRMPD2_2, Q68DX3 (setting [1]) it was “below the threshold”. Also, the negative-log Kd (pKd) entry is “below the threshold” with Inadl_4, Q8NI35 (setting [1]); “below the threshold” with GRIP2_4, Q9C0E4 (setting [1]); “below the threshold” with MPP2, Q14168 (setting [1]); “below the threshold” in the test with APBA2_2, Q99767 (setting [1]); “below the threshold” with APBA1_2, Q02410 (setting [1]); 4.15 with PTPN3, P26045 (setting [1]).
In the case of SSRTRRETQL [HPV16-E6_-2P, P03126], the negative logarithm of the Kd (pKd) entry with GRIP1_5, Q9Y3R0 (setting [2]) was “below the threshold”; in the test with LIN7B, Q9HAP6 (setting [2]), “below the threshold”; with MAGI2_6, Q86UL8 (setting [2]), “below the threshold”; in the test with SNTB1, Q13884 (setting [2]), “below the threshold”; in the test with MPDZ_5, O75970 (setting [2]) it was “below the threshold”; with MAST2, Q6P0Q8 (setting [2]) it was 3.79. The pKd entry with DLG4_1, P78352 (setting [2]) is recorded as “below the threshold”; with MPP7, Q5T2T1 (setting [2]), “below the threshold”; with CASK, O14936 (setting [2]), “below the threshold”; in the test with ARHGEF12, Q9NZN5-2 (setting [2]), “below the threshold”; with NHERF3_3, Q5T2W1 (setting [2]) it was “below the threshold”; in the test with NHERF3_4, Q5T2W1 (setting [2]), “below the threshold”. Also, the negative logarithm of the Kd (pKd) entry is “below the threshold” with PDLIM1, O00151 (setting [2]); 4.05 with ARHGAP21, Q5T5U3 (setting [2]); 3.98 with TX1BP3, O14907 (setting [2]); “below the threshold” with PDZD7_3, Q9H5P4 (setting [2]); “below the threshold” with SIPA1L2, Q9P2F8 (setting [2]); “below the threshold” with FRMPD2_2, Q68DX3 (setting [2]). In addition, the pKd entry is “below the threshold” with Inadl_4, Q8NI35 (setting [2]); “below the threshold” with GRIP2_4, Q9C0E4 (setting [2]); “below the threshold” with MPP2, Q14168 (setting [2]); “below the threshold” with APBA2_2, Q99767 (setting [2]); “below the threshold” with APBA1_2, Q02410 (setting [2]); 3.92 with PTPN3, P26045 (setting [2]).
For EDGESWEYQI [TRPV6, Q9H1D0], the negative logarithm of the Kd (pKd) entry in the test with GRIP1_5, Q9Y3R0 (setting [1]) is “below the threshold”; with LIN7B, Q9HAP6 (setting [1]), 3.59; with MAGI2_6, Q86UL8 (setting [1]) it was 3.55; with SNTB1, Q13884 (setting [1]), “below the threshold”; with MPDZ_5, O75970 (setting [1]), “below the threshold”; in the test with MAST2, Q6P0Q8 (setting [1]) it was 4.78. Further, the negative logarithm of the Kd (pKd) result with DLG4_1, P78352 (setting [1]) was “below the threshold”; with MPP7, Q5T2T1 (setting [1]), 5.06; with CASK, O14936 (setting [1]), “below the threshold”; with ARHGEF12, Q9NZN5-2 (setting [1]), “below the threshold”; in the test with NHERF3_3, Q5T2W1 (setting [1]), “below the threshold”; with NHERF3_4, Q5T2W1 (setting [1]) it was “below the threshold”. Moreover, the pKd entry was “below the threshold” in the test with PDLIM1, O00151 (setting [1]); 3.57 in the test with ARHGAP21, Q5T5U3 (setting [1]); “below the threshold” in the test with TX1BP3, O14907 (setting [1]); “below the threshold” with PDZD7_3, Q9H5P4 (setting [1]); “below the threshold” with SIPA1L2, Q9P2F8 (setting [1]); “below the threshold” in the test with FRMPD2_2, Q68DX3 (setting [1]). Besides, the negative logarithm of the Kd (pKd) result with Inadl_4, Q8NI35 (setting [1]) is “below the threshold”; with GRIP2_4, Q9C0E4 (setting [1]) it was “below the threshold”; in the test with MPP2, Q14168 (setting [1]), 3.57; in the test with APBA2_2, Q99767 (setting [1]), “below the threshold”; with APBA1_2, Q02410 (setting [1]), “below the threshold”; with PTPN3, P26045 (setting [1]), 4.13.
Take AQRARSPSDV [GPR12, P47775]: the negative-log Kd (pKd) result was “below the threshold” with GRIP1_5, Q9Y3R0 (setting [1]); 3.75 with LIN7B, Q9HAP6 (setting [1]); “below the threshold” in the test with MAGI2_6, Q86UL8 (setting [1]); “below the threshold” with SNTB1, Q13884 (setting [1]); “below the threshold” with MPDZ_5, O75970 (setting [1]); “below the threshold” with MAST2, Q6P0Q8 (setting [1]). The pKd result is “below the threshold” in the test with DLG4_1, P78352 (setting [1]); 3.59 with MPP7, Q5T2T1 (setting [1]); “below the threshold” in the test with CASK, O14936 (setting [1]); “below the threshold” with ARHGEF12, Q9NZN5-2 (setting [1]); “below the threshold” with NHERF3_3, Q5T2W1 (setting [1]); “below the threshold” with NHERF3_4, Q5T2W1 (setting [1]). Also, the pKd result in the test with PDLIM1, O00151 (setting [1]) is “below the threshold”; in the test with ARHGAP21, Q5T5U3 (setting [1]), “below the threshold”; in the test with TX1BP3, O14907 (setting [1]), “below the threshold”; in the test with PDZD7_3, Q9H5P4 (setting [1]) it was 3.48; with SIPA1L2, Q9P2F8 (setting [1]), “below the threshold”; with FRMPD2_2, Q68DX3 (setting [1]), “below the threshold”. Moreover, the negative logarithm of the Kd (pKd) result with Inadl_4, Q8NI35 (setting [1]) was “below the threshold”; with GRIP2_4, Q9C0E4 (setting [1]), “below the threshold”; with MPP2, Q14168 (setting [1]), “below the threshold”; with APBA2_2, Q99767 (setting [1]), “below the threshold”; in the test with APBA1_2, Q02410 (setting [1]), 4.14; in the test with PTPN3, P26045 (setting [1]), 3.98.

The pKd is the Kd on a negative log10 scale, so that one unit is a factor of ten.

Source of the values: publication PMC9482650, “Quantitative fragmentomics allow affinity mapping of interactomes” (Nature Communications, 2022).
